Data as given in patent US7943337B2, “Method for screening a protease” (Asahi Kasei Pharma Corporation, priority 2003, dated 2011).

B1: carboxypeptidase B: carboxypeptidase B (manufactured by Sigma-Aldrich Corp.) (protein, UniProt P09955 111-416, looked up)
Carboxypeptidase B: TTGHSYEKYNNWETIEAWTKQVTSENPDLISRTAIGTTFLGNNIYLLKVGKPGPNKPAIFMDCGFHAREWISHAFCQWFVREAVLTYGYESHMTEFLNKLDFYVLPVLNIDGYIYTWTKNRMWRKTRSTNAGTTCIGTDPNRNFDAGWCTTGASTDPCDETYCGSAAESEKETKALADFIRNNLSSIKAYLTIHSYSQMILYPYSYDYKLPENNAELNNLAKAAVKELATLYGTKYTYGPGATTIYPAAGGSDDWAYDQGIKYSFTFELRDKGRYGFILPESQIQATCEETMLAIKYVTNYVLGHL
B2: thermolysin: thermolysin (manufactured by Wako Pure Chemical Industries, Ltd.) (protein, UniProt P00800 233-548, looked up)
Thermolysin: ITGTSTVGVGRGVLGDQKNINTTYSTYYYLQDNTRGNGIFTYDAKYRTTLPGSLWADADNQFFASYDAPAVDAHYYAGVTYDYYKNVHNRLSYDGNNAAIRSSVHYSQGYNNAFWNGSQMVYGDGDGQTFIPLSGGIDVVAHELTHAVTDYTAGLIYQNESGAINEAISDIFGTLVEFYANKNPDWEIGEDVYTPGISGDSLRSMSDPAKYGDPDHYSKRYTGTQDNGGVHINSGIINKAAYLISQGGTHYGVSVVGIGRDKLGKIFYRALTQYLTPTSNFSQLRAAAVQSATDLYGSTSQEVASVKQAFDAVGVK
B3: protease type VIII: protease (type VIII Subtilisin Carlsberg: manufactured by Sigma-Aldrich Corp.) (protein, UniProt P00780 106-379, looked up)
Subtilisin Carlsberg: AQTVPYGIPLIKADKVQAQGFKGANVKVAVLDTGIQASHPDLNVVGGASFVAGEAYNTDGNGHGTHVAGTVAALDNTTGVLGVAPSVSLYAVKVLNSSGSGSYSGIVSGIEWATTNGMDVINMSLGGASGSTAMKQAVDNAYAKGVVVVAAAGNSGSSGNTNTIGYPAKYDSVIAVGAVDSNSNRASFSSVGAELEVMAPGAGVYSTYPTNTYATLNGTSMASPHVAGAAALILSKHPNLSASQVRNRLSSTATYLGSSFYYGKGLINVEAAAQ
B4: proteinase K: Proteinase K (manufactured by Wako Pure Chemical Industries, Ltd.) (protein, UniProt P06873 106-384, looked up)
Proteinase K: AAQTNAPWGLARISSTSPGTSTYYYDESAGQGSCVYVIDTGIEASHPEFEGRAQMVKTYYYSSRDGNGHGTHCAGTVGSRTYGVAKKTQLFGVKVLDDNGSGQYSTIIAGMDFVASDKNNRNCPKGVVASLSLGGGYSSSVNSAAARLQSSGVMVAVAAGNNNADARNYSPASEPSVCTVGASDRYDRRSSFSNYGSVLDIFGPGTSILSTWIGGSTRSISGTSMATPHVAGLAAYLMTLGKTTAASACRYIADTANKGDLSNIPFGTVNLLAYNNYQA
B5: carboxypeptidase Y: carboxypeptidase Y (manufactured by Oriental Yeast Co., Ltd.) (protein, UniProt P00729 112-532, looked up)
Carboxypeptidase Y: KIKDPKILGIDPNVTQYTGYLDVEDEDKHFFFWTFESRNDPAKDPVILWLNGGPGCSSLTGLFFELGPSSIGPDLKPIGNPYSWNSNATVIFLDQPVNVGFSYSGSSGVSNTVAAGKDVYNFLELFFDQFPEYVNKGQDFHIAGESYAGHYIPVFASEILSHKDRNFNLTSVLIGNGLTDPLTQYNYYEPMACGEGGEPSVLPSEECSAMEDSLERCLGLIESCYDSQSVWSCVPATIYCNNAQLAPYQRTGRNVYDIRKDCEGGNLCYPTLQDIDDYLNQDYVKEAVGAEVDHYESCNFDINRNFLFAGDWMKPYHTAVTDLLNQDLPILVYAGDKDFICNWLGNKAWTDVLPWKYDEEFASQKVRNWTASITDEVAGEVKSYKHFTYLRVFNGGHMVPFDVPENALSMVNEWIHGGFSL
B6: carboxypeptidase A: carboxypeptidase A (manufactured by Wako Pure Chemical Industries, Ltd.) (protein, UniProt P00730 111-419, looked up)
Carboxypeptidase A1: ARSTNTFNYATYHTLDEIYDFMDLLVAEHPQLVSKLQIGRSYEGRPIYVLKFSTGGSNRPAIWIDLGIHSREWITQATGVWFAKKFTEDYGQDPSFTAILDSMDIFLEIVTNPDGFAFTHSQNRLWRKTRSVTSSSLCVGVDANRNWDAGFGKAGASSSPCSETYHGKYANSEVEVKSIVDFVKDHGNFKAFLSIHSYSQLLLYPYGYTTQSIPDKTELNQVAKSAVEALKSLYGTSYKYGSIITTIYQASGGSIDWSYNQGIKYSFTFELRDTGRYGFLLPASQIIPTAQETWLGVLTIMEHTLNNLY

Experiments:
Assay type in all cases: biochemical
[1] = Screening of protease for hemoglobin A1c determination (pH 3.5); settings: pH 3.5, 37° C. 60 minutes; 550 nm, reference 595 nm; FOD923 developing solution
Method: (§1) A screening method is shown in which a protease that cleaves a glycated peptide from N-terminal-glycated pentapeptide of a hemoglobin β-chain without substantially cleaving a glycated amino acid or glycated peptide from N-terminal-glycated pentapeptide of a hemoglobin α-chain. Each 10 μl of a sample for screening was placed in 3 wells of a 96-well plate, respectively. Then, the first well was supplemented with 50 μl of an α-solution, the second well was supplemented with 50 μl of a β-solution, and the third well was supplemented with 50 μl of a control solution. After the plate was incubated at 37° C. for 60 minutes, 50 μl of pH-regulating solution and 50 μl of a developing solution were added, and the whole was left at room temperature for 30 minutes. Then, the absorbance at a measuring wavelength of 550 nm and a reference wavelength of 595 nm were determined using a Microplate Reader (model 550, manufactured by Bio-Rad), to select a sample having a difference in the absorbance between the β-solution-supplemented well and the control solution-supplemented well larger than a difference in the absorbance between the α-solution-supplemented well and the control solution-supplemented well. Thus the protease of object was screened. The samples to be used include: carboxypeptidase B (manufactured by Sigma-Aldrich Corp.); carboxypeptidase W (manufactured by Wako Pure Chemical Industries, Ltd.); carboxypeptidase Y (manufactured by Oriental Yeast Co., Ltd.); protease (type XXVII nagase: manufactured by Sigma-Aldrich Corp.); protease (type VIII Subtilisin Carlsberg: manufactured by Sigma-Aldrich Corp.); protease (type XXIV Bacterial: manufactured by Sigma-Aldrich Corp.); Proteinase K (manufactured by Wako Pure Chemical Industries, Ltd.); neutral proteinase (manufactured by Toyobo Co., Ltd.); and distilled water. To confirm a degree of color development caused by a developing solution, 10 μl of 1 mM FVH (manufactured by Peptide Institute Inc.) and 1 mM FVL (manufactured by Peptide Institute Inc.) were placed in a well severally, followed by adding 50 μl of the control solution. The whole was incubated at 37° C. for 60 minutes. Then, 50 μl of a pH-regulating solution and 50 μl of the developing solution were added and the whole was left at room temperature for 30 minutes, followed by the determination in a similar manner as described above.
(§2) 50 mM Acetate-sodium acetate (pH3.5)
(§3) 0.2 mM α-Glycated pentapeptide (manufactured by Peptide Institute Inc.)
(§4) 0.09% 4-aminoantipyrine (manufactured by Wako Pure Chemical Industries, Ltd.)
(§5) 0.06% TODB (manufactured by Dojindo Laboratories)
(§6) 15 U/ml Peroxidase (manufactured by Sigma-Aldrich Corp.)

[2] = as above; settings: for β-Solution (absorbance, RAW DATA): pH 3.5, 37° C. 60 minutes, 550 nm, reference 595 nm, FOD923 developing solution
Method: as §1, §2
(§7) 0.2 mM β-Glycated pentapeptide (manufactured by Peptide Institute Inc.)
as §4, §5, §6

[3] = Screening of protease for hemoglobin A1c determination (pH 7.5); settings: for specificity for β-chain over α-chain N-terminal glycated pentapeptide: pH 7.5; for β-Solution (absorbance, RAW DATA): pH 7.5, 37° C. 60 minutes, 550 nm, reference 595 nm, FOD923 developing solution
Method: as §1, with “μl of distilled water and 50” for “μl of pH-regulating solution and 50”, “Co., Ltd.); carboxypeptidase A (manufactured by Wako Pure Chemical Industries, Ltd.); thermolysin (manufactured by Wako Pure Chemical Industries, Ltd.); and distilled” for “Co., Ltd.); and distilled”, “μl of distilled water and 50” for “μl of a pH-regulating solution and 50”
as §7
(§8) 0.09% 4-Aminoantipyrine (manufactured by Wako Pure Chemical Industries, Ltd.)
as §5, §6
(§9) Various bacteria were cultured with shaking in Difco Lactobacilli MRS Broth (manufactured by Becton, Dickinson and Company), a MM medium (2.5% mannose, 2.5% beer yeast extract, pH7.0), and a YPG medium (2% glucose, 1% polypeptone, 2% yeast extract, 0.1% potassium dihydrogen phosphate, 0.05% magnesium sulfate heptahydrate, pH 7.0) at a temperature of from 28 to 30° C. for 1 to 7 days. Then, cells were removed by centrifugation from the culture solutions to obtain culture supernatants. A sample was prepared by diluting the obtained culture supernatants 10-fold with a 10 mM potassium phosphate buffer (pH7.5), and the determination was performed in a similar manner as Example 1.

[4] = as above; settings: pH 7.5, 37° C. 60 minutes; 550 nm, reference 595 nm; FOD923 developing solution
Method: as §1, with “μl of distilled water and 50” for “μl of pH-regulating solution and 50”, “Co., Ltd.); carboxypeptidase A (manufactured by Wako Pure Chemical Industries, Ltd.); thermolysin (manufactured by Wako Pure Chemical Industries, Ltd.); and distilled” for “Co., Ltd.); and distilled”, “μl of distilled water and 50” for “μl of a pH-regulating solution and 50”
as §3, §8, §5, §6, §9

[5] = Screening of protease (pH 3.5), control solution without substrate; settings: pH 3.5, no substrate; 550 nm, reference 595 nm
Method: as §1, §2, §4, §5, §6

[6] = Screening of protease (pH 7.5), control solution without substrate; settings: pH 7.5, no substrate; 550 nm, reference 595 nm
Method: as §1, with “μl of distilled water and 50” for “μl of pH-regulating solution and 50”, “Co., Ltd.); carboxypeptidase A (manufactured by Wako Pure Chemical Industries, Ltd.); thermolysin (manufactured by Wako Pure Chemical Industries, Ltd.); and distilled” for “Co., Ltd.); and distilled”, “μl of distilled water and 50” for “μl of a pH-regulating solution and 50”
as §8, §5, §6, §9

Row | Molecule | α-Solution (absorbance, RAW DATA) [1] | specificity for β-chain over α-chain N-terminal glycated pentapeptide ([2]; pH 3.5) | β-Solution (absorbance, RAW DATA) [2] | specificity for β-chain over α-chain N-terminal glycated pentapeptide [3] | β-Solution (absorbance, RAW DATA) [3] | α-Solution (absorbance, RAW DATA) [4] | control solution (absorbance, RAW DATA) [5] | control solution (absorbance, RAW DATA) [6]
1 | B1 | 0.063 | cleaves a glycated peptide from an N-terminal glycated pentapeptide of a hemoglobin β-chain without substantially cleaving | 0.147 | cleave a glycated peptide from an N-terminal glycated pentapeptide of a hemoglobin β-chain without substantially cleaving | 0.127 | 0.036 | 0.060 | 0.028
2 | B2 | – | – | – | cleave a glycated peptide from an N-terminal glycated pentapeptide of a hemoglobin β-chain without substantially cleaving | 0.249 | 0.053 | – | 0.055
3 | B3 | 0.019 | – | 0.018 | – | 0.020 | 0.023 | 0.016 | 0.012
4 | B4 | 0.024 | – | 0.026 | – | 0.077 | 0.031 | 0.023 | 0.017
5 | B5 | 0.195 | – | 0.206 | – | 0.209 | 0.240 | 0.034 | 0.031
6 | B6 | – | – | – | – | 0.145 | 0.022 | – | 0.018
